Assays:
[1] = molecular target: T1, GST alone control protein (UniProt P08515 1-218 = GST); experiment: SPR (Biacore J), control injected over SAA on CM5 chip
T1 construct: Negative control; also called GST control protein; control GST alone protein
Experimental: (§1) The 96% pure SAA was covalently bound to the biospecific sensor surface of the Biacore J (biacore, Sweden). This surface consists of a gold-coated glass slide mounted in a plastic holder (the sensor chip). The CM5 chip (biacore, Sweden) was used for all experiments and this chip is covered with a hydrophilic matrix, consisting of carboxymethylated dextran to which the SAA was covalently bound. The tanis protein fragments were injected into the system and flowed across this chip and sensorgrams were recorded in real-time.
(§2) The interaction of the proteins is indicated by the failure of the response to return to the baseline RU value. The difference between the values post injection (points 1, 3, 5, 7) indicates a binding event between full length tanis and SAA. The difference between the injection point and the max RU indicates the affinity between the two proteins. […] These sensorgrams indicate a potentially high affinity binding with a rapid dissociation of the binding event. A series of controls have also been injected across the SAA chip, these were GST alone, BSA (NEB, USA) alone and buffer alone.

BSA (NEB, USA) = molecular target: T2, BSA (NEB, USA) (UniProt P02769 25-607); experiment: as above
T2 construct: Negative control
Experimental: as §1, §2

T1 sequence (P08515 whole entry): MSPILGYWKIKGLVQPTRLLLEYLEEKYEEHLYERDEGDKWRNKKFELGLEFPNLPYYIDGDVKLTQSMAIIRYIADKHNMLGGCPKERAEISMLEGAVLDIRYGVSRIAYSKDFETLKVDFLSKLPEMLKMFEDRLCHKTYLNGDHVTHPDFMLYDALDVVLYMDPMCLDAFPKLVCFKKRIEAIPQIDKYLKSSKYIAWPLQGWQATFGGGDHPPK
T2 sequence (P02769 25-607 limits assumed): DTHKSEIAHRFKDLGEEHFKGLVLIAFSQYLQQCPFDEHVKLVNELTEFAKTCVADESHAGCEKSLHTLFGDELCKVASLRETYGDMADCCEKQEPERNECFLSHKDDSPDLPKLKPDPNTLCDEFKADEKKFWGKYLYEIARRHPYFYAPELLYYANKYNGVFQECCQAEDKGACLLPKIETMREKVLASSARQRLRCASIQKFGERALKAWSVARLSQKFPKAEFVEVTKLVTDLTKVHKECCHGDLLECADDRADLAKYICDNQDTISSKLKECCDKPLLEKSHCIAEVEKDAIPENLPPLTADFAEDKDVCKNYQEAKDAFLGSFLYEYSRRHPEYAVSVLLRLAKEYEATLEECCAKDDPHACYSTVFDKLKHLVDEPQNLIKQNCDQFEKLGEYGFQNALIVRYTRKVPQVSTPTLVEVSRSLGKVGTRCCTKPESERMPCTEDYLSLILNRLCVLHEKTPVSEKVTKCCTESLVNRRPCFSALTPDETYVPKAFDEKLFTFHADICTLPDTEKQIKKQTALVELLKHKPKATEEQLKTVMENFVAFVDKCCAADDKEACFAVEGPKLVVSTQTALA

binding result [1]: no binding
binding result (BSA (NEB, USA)): no binding
B1: Serum amyloid A (SAA) purified from human sera / human plasma (Trace Scientific) (ligand, UniProt P0DJI8 19-122, looked up)
chain: RSFFSFLGEAFDGARDMWRAYSDMREANYIGSDKYFHARGNYDAAKRGPGGAWAAEVITDARENIQRFFGHGAEDSLADQAANEWGRSGKDPNHFRPAGLPEKY
notes: also called human plasma SAA

Source: US20040248767A1 (AUTOGEN RESEARCH, published 2004)
